± gives the uncertainty stated by the source.

For 70 variants, abundance fitness results are on record in the Human Domainome abundance scans (Beltran et al. 2025).

Sequences and labels used below:
B1: Zinc finger MYM-type protein 6, residues 427 to 504; numbered along this chain, O95789 (parent)
chain: KLKCQHCNHLFATKPELLFYKGKMFLFCGKNCSDEYKKKNKVVAMCDYCKLQKIIKETVRFSGVDKPFCSEVCKFLSA

The data set covers variants of B1. Kind of data set: abundance fitness (aPCA) (normalised: wild type 0, dead -1); higher = more abundant; growth selection in yeast, the domain comes from the species named. The note with it: Homo sapiens.
KLKCQHCNHLFATKPELLFYKGKMFLFCGKNCSDEYKKKNKVVAMCDYGKLQKIIKETVRFSGVDKPFCSEVCKFLSA: the abundance fitness is -0.54 ± 0.083.
To KLKCQHCNHLFATKPELLFYKGKMFLFCGKNCSDEYKKKNKVVAMCDYRKLQKIIKETVRFSGVDKPFCSEVCKFLSA belongs -0.242 ± 0.089; to KLKCQHCNHLFATKPELLFYKGKMFLFCGKNCSDEYKKKNKVVAMCDYQKLQKIIKETVRFSGVDKPFCSEVCKFLSA, 0.123 ± 0.19; to KLKCQHCNHLFATKPELLFYKGKMFLFCGKNCSDEYKKKNKVVAMCDYVKLQKIIKETVRFSGVDKPFCSEVCKFLSA, -1.07 ± 0.17.
With KLKCQHCNHLFATKPELLFYKGKMFLFCGKNCSDEYKKKNKVVAMCDYSKLQKIIKETVRFSGVDKPFCSEVCKFLSA, the abundance fitness was -0.489 ± 0.13.
The same measure for KLKCQHCNHLFATKPELLFYKGKMFLFCGKNCSDEYKKKNKVVAMCDYKKLQKIIKETVRFSGVDKPFCSEVCKFLSA: -0.433 ± 0.32; for KLKCQHCNHLFATKPELLFYKGKMFLFCGKNCSDEYKKKNKVVAMCDYWKLQKIIKETVRFSGVDKPFCSEVCKFLSA: -1.05 ± 0.22; for KLKCQHCNHLFATKPELLFYKGKMFLFCGKNCSDEYKKKNKVVAMCDYTKLQKIIKETVRFSGVDKPFCSEVCKFLSA: -0.54 ± 0.32.
KLKCQHCNHLFATKPELLFYKGKMFLFCGKNCSDEYKKKNKVVAMCDYMKLQKIIKETVRFSGVDKPFCSEVCKFLSA: the abundance fitness is -0.677 ± 0.23.
To KLKCQHCNHLFATKPELLFYKGKMFLFCGKNCSDEYKKKNKVVAMCDYCKMQKIIKETVRFSGVDKPFCSEVCKFLSA belongs 0.805 ± 0.092; to KLKCQHCNHLFATKPELLFYKGKMFLFCGKNCSDEYKKKNKVVAMCDYCKWQKIIKETVRFSGVDKPFCSEVCKFLSA, -0.806 ± 0.13; to KLKCQHCNHLFATKPELLFYKGKMFLFCGKNCSDEYKKKNKVVAMCDYCKDQKIIKETVRFSGVDKPFCSEVCKFLSA, 0.345 ± 0.32.
The same measure for KLKCQHCNHLFATKPELLFYKGKMFLFCGKNCSDEYKKKNKVVAMCDYCKIQKIIKETVRFSGVDKPFCSEVCKFLSA: 0.022 ± 0.32; for KLKCQHCNHLFATKPELLFYKGKMFLFCGKNCSDEYKKKNKVVAMCDYCKAQKIIKETVRFSGVDKPFCSEVCKFLSA: 0.187 ± 0.077.
The same measure for KLKCQHCNHLFATKPELLFYKGKMFLFCGKNCSDEYKKKNKVVAMCDYCKKQKIIKETVRFSGVDKPFCSEVCKFLSA: 0.414 ± 0.11.
Consider KLKCQHCNHLFATKPELLFYKGKMFLFCGKNCSDEYKKKNKVVAMCDYCKTQKIIKETVRFSGVDKPFCSEVCKFLSA, for which the abundance fitness was 0.551 ± 0.1.
For KLKCQHCNHLFATKPELLFYKGKMFLFCGKNCSDEYKKKNKVVAMCDYCKSQKIIKETVRFSGVDKPFCSEVCKFLSA, the abundance fitness amounted to 0.567 ± 0.089.
The same measure for KLKCQHCNHLFATKPELLFYKGKMFLFCGKNCSDEYKKKNKVVAMCDYCKVQKIIKETVRFSGVDKPFCSEVCKFLSA: -0.119 ± 0.091; for KLKCQHCNHLFATKPELLFYKGKMFLFCGKNCSDEYKKKNKVVAMCDYCKGQKIIKETVRFSGVDKPFCSEVCKFLSA: 0.484 ± 0.058.
To KLKCQHCNHLFATKPELLFYKGKMFLFCGKNCSDEYKKKNKVVAMCDYCKQQKIIKETVRFSGVDKPFCSEVCKFLSA belongs 0.529 ± 0.12; to KLKCQHCNHLFATKPELLFYKGKMFLFCGKNCSDEYKKKNKVVAMCDYCKRQKIIKETVRFSGVDKPFCSEVCKFLSA, 0.509 ± 0.064.
To KLKCQHCNHLFATKPELLFYKGKMFLFCGKNCSDEYKKKNKVVAMCDYCKHQKIIKETVRFSGVDKPFCSEVCKFLSA belongs 0.513 ± 0.17.
KLKCQHCNHLFATKPELLFYKGKMFLFCGKNCSDEYKKKNKVVAMCDYCKCQKIIKETVRFSGVDKPFCSEVCKFLSA: the abundance fitness came out at 0.49 ± 0.13.
For the variant KLKCQHCNHLFATKPELLFYKGKMFLFCGKNCSDEYKKKNKVVAMCDYCKLQRIIKETVRFSGVDKPFCSEVCKFLSA, the abundance fitness is -0.308 ± 0.096.
The same measure for KLKCQHCNHLFATKPELLFYKGKMFLFCGKNCSDEYKKKNKVVAMCDYCKLQLIIKETVRFSGVDKPFCSEVCKFLSA: -0.351 ± 0.099.
The same measure for KLKCQHCNHLFATKPELLFYKGKMFLFCGKNCSDEYKKKNKVVAMCDYCKLQEIIKETVRFSGVDKPFCSEVCKFLSA: -0.353 ± 0.13.
To KLKCQHCNHLFATKPELLFYKGKMFLFCGKNCSDEYKKKNKVVAMCDYCKLQWIIKETVRFSGVDKPFCSEVCKFLSA belongs -0.313 ± 0.09; to KLKCQHCNHLFATKPELLFYKGKMFLFCGKNCSDEYKKKNKVVAMCDYCKLQVIIKETVRFSGVDKPFCSEVCKFLSA, -0.127 ± 0.11; to KLKCQHCNHLFATKPELLFYKGKMFLFCGKNCSDEYKKKNKVVAMCDYCKLQMIIKETVRFSGVDKPFCSEVCKFLSA, -0.189 ± 0.21.
In the case of KLKCQHCNHLFATKPELLFYKGKMFLFCGKNCSDEYKKKNKVVAMCDYCKLQAIIKETVRFSGVDKPFCSEVCKFLSA, the abundance fitness is -0.126 ± 0.13.
The same measure for KLKCQHCNHLFATKPELLFYKGKMFLFCGKNCSDEYKKKNKVVAMCDYCKLQGIIKETVRFSGVDKPFCSEVCKFLSA: -0.148 ± 0.067; for KLKCQHCNHLFATKPELLFYKGKMFLFCGKNCSDEYKKKNKVVAMCDYCKLQPIIKETVRFSGVDKPFCSEVCKFLSA: -0.154 ± 0.15; for KLKCQHCNHLFATKPELLFYKGKMFLFCGKNCSDEYKKKNKVVAMCDYCKLQCIIKETVRFSGVDKPFCSEVCKFLSA: 0.367 ± 0.12.
The same measure for KLKCQHCNHLFATKPELLFYKGKMFLFCGKNCSDEYKKKNKVVAMCDYCKLQFIIKETVRFSGVDKPFCSEVCKFLSA: 0.088 ± 0.36; for KLKCQHCNHLFATKPELLFYKGKMFLFCGKNCSDEYKKKNKVVAMCDYCKLQSIIKETVRFSGVDKPFCSEVCKFLSA: -0.431 ± 0.15.
To KLKCQHCNHLFATKPELLFYKGKMFLFCGKNCSDEYKKKNKVVAMCDYCKLVKIIKETVRFSGVDKPFCSEVCKFLSA belongs 0.173 ± 0.092.
On to KLKCQHCNHLFATKPELLFYKGKMFLFCGKNCSDEYKKKNKVVAMCDYCKLRKIIKETVRFSGVDKPFCSEVCKFLSA, for which the abundance fitness stood at 0.061 ± 0.071.
To KLKCQHCNHLFATKPELLFYKGKMFLFCGKNCSDEYKKKNKVVAMCDYCKLPKIIKETVRFSGVDKPFCSEVCKFLSA belongs 0.108 ± 0.22.
The same measure for KLKCQHCNHLFATKPELLFYKGKMFLFCGKNCSDEYKKKNKVVAMCDYCKLWKIIKETVRFSGVDKPFCSEVCKFLSA: -0.483 ± 0.2.
For the variant KLKCQHCNHLFATKPELLFYKGKMFLFCGKNCSDEYKKKNKVVAMCDYCKLCKIIKETVRFSGVDKPFCSEVCKFLSA, the abundance fitness was -0.576 ± 0.23.
To KLKCQHCNHLFATKPELLFYKGKMFLFCGKNCSDEYKKKNKVVAMCDYCKLAKIIKETVRFSGVDKPFCSEVCKFLSA belongs -0.485 ± 0.11; to KLKCQHCNHLFATKPELLFYKGKMFLFCGKNCSDEYKKKNKVVAMCDYCKLEKIIKETVRFSGVDKPFCSEVCKFLSA, 0.446 ± 0.075; to KLKCQHCNHLFATKPELLFYKGKMFLFCGKNCSDEYKKKNKVVAMCDYCKLKKIIKETVRFSGVDKPFCSEVCKFLSA, 0.51 ± 0.11.
The same measure for KLKCQHCNHLFATKPELLFYKGKMFLFCGKNCSDEYKKKNKVVAMCDYCKLTKIIKETVRFSGVDKPFCSEVCKFLSA: 0.181 ± 0.09; for KLKCQHCNHLFATKPELLFYKGKMFLFCGKNCSDEYKKKNKVVAMCDYCKLLKIIKETVRFSGVDKPFCSEVCKFLSA: -0.128 ± 0.093; for KLKCQHCNHLFATKPELLFYKGKMFLFCGKNCSDEYKKKNKVVAMCDYCKLMKIIKETVRFSGVDKPFCSEVCKFLSA: 0.234 ± 0.23.
On to KLKCQHCNHLFATKPELLFYKGKMFLFCGKNCSDEYKKKNKVVAMCDYCVLQKIIKETVRFSGVDKPFCSEVCKFLSA, for which the abundance fitness was -0.96 ± 0.13.
To KLKCQHCNHLFATKPELLFYKGKMFLFCGKNCSDEYKKKNKVVAMCDYCELQKIIKETVRFSGVDKPFCSEVCKFLSA belongs -0.363 ± 0.14.
To KLKCQHCNHLFATKPELLFYKGKMFLFCGKNCSDEYKKKNKVVAMCDYCALQKIIKETVRFSGVDKPFCSEVCKFLSA belongs -0.786 ± 0.16.
The same measure for KLKCQHCNHLFATKPELLFYKGKMFLFCGKNCSDEYKKKNKVVAMCDYCQLQKIIKETVRFSGVDKPFCSEVCKFLSA: 0.164 ± 0.17.
With KLKCQHCNHLFATKPELLFYKGKMFLFCGKNCSDEYKKKNKVVAMCDYCCLQKIIKETVRFSGVDKPFCSEVCKFLSA, the abundance fitness was -0.805 ± 0.19.
Take KLKCQHCNHLFATKPELLFYKGKMFLFCGKNCSDEYKKKNKVVAMCDYCNLQKIIKETVRFSGVDKPFCSEVCKFLSA: the abundance fitness was -0.23 ± 0.17.
To KLKCQHCNHLFATKPELLFYKGKMFLFCGKNCSDEYKKKNKVVAMCDYCRLQKIIKETVRFSGVDKPFCSEVCKFLSA belongs -0.172 ± 0.074; to KLKCQHCNHLFATKPELLFYKGKMFLFCGKNCSDEYKKKNKVVAMCDYCTLQKIIKETVRFSGVDKPFCSEVCKFLSA, -0.687 ± 0.45; to KLKCQHCNHLFATKPELLFYKGKMFLFCGKNCSDEYKKKNKVVAMCDYCGLQKIIKETVRFSGVDKPFCSEVCKFLSA, -0.228 ± 0.076.
Take KLKCQHCNHLFATKPELLFYKGKMFLFCGKNCSDEYKKKNKVVAMCDYCMLQKIIKETVRFSGVDKPFCSEVCKFLSA: the abundance fitness is -0.685 ± 0.27.
The same measure for KLKCQHCNHLFATKPELLFYKGKMFLFCGKNCSDEYKKKNKVVAMCDYCLLQKIIKETVRFSGVDKPFCSEVCKFLSA: -0.722 ± 0.19; for KLKCQHCNHLFATKPELLFYKGKMFLFCGKNCSDEYKKKNKVVAMCDYCWLQKIIKETVRFSGVDKPFCSEVCKFLSA: -0.709 ± 0.13; for KLKCQHCNHLFATKPELLFYKGKMFLFCGKNCSDEYKKKNKVVAMCDYCHLQKIIKETVRFSGVDKPFCSEVCKFLSA: -0.427 ± 0.43.
To KLKCQHCNHLFATKPELLFYKGKMFLFCGKNCSDEYKKKNKVVAMCDYCDLQKIIKETVRFSGVDKPFCSEVCKFLSA belongs -0.767 ± 0.37; to KLKCQHCNHLFATKPELLFYKGKMFLFCGKNCSDEYKKKNKVVAMCDYCSLQKIIKETVRFSGVDKPFCSEVCKFLSA, -0.422 ± 0.18; to KLKCQHCNHLFATKPELLFYKGKMFLFCGKNCSDEYKKKNKVVAMCDYCYLQKIIKETVRFSGVDKPFCSEVCKFLSA, -0.48 ± 0.5.
The same measure for KLKCQHCNHLFATKPELLFYKGKMFLFCGKNCSDEYKKKNKVVAMCDYCKLQKAIKETVRFSGVDKPFCSEVCKFLSA: 0.557 ± 0.068; for KLKCQHCNHLFATKPELLFYKGKMFLFCGKNCSDEYKKKNKVVAMCDYCKLQKMIKETVRFSGVDKPFCSEVCKFLSA: 0.623 ± 0.083.
For KLKCQHCNHLFATKPELLFYKGKMFLFCGKNCSDEYKKKNKVVAMCDYCKLQKLIKETVRFSGVDKPFCSEVCKFLSA, the abundance fitness was 0.128 ± 0.078.
To KLKCQHCNHLFATKPELLFYKGKMFLFCGKNCSDEYKKKNKVVAMCDYCKLQKNIKETVRFSGVDKPFCSEVCKFLSA belongs 0.189 ± 0.39; to KLKCQHCNHLFATKPELLFYKGKMFLFCGKNCSDEYKKKNKVVAMCDYCKLQKPIKETVRFSGVDKPFCSEVCKFLSA, 0.442 ± 0.1.
With KLKCQHCNHLFATKPELLFYKGKMFLFCGKNCSDEYKKKNKVVAMCDYCKLQKGIKETVRFSGVDKPFCSEVCKFLSA, the abundance fitness was determined as 0.238 ± 0.06.
To KLKCQHCNHLFATKPELLFYKGKMFLFCGKNCSDEYKKKNKVVAMCDYCKLQKKIKETVRFSGVDKPFCSEVCKFLSA belongs 0.356 ± 0.17.
KLKCQHCNHLFATKPELLFYKGKMFLFCGKNCSDEYKKKNKVVAMCDYCKLQKCIKETVRFSGVDKPFCSEVCKFLSA: the abundance fitness was 0.675 ± 0.26.
